Data as given in patent KR20210028556A (dated 2021).

Columns and labels:
[1] = target: T1, 인간 ROR1 항원 (ELISA 코팅: 실시예 1의 ROR1-Fc 또는 재조합 인간 ROR1-His) (human, UniProt Q01973 30-406); experiment: ELISA, IgG on coated human ROR1 protein
T1 construct: extracellular domain; tag therefore open

[2] = target: T2, 인간 ROR2 (세포 표면 발현, CHO-human ROR2) (human, UniProt Q01974 34-943); experiment: flow cytometry, CHO-human ROR2 cells
T2 construct: whole, on cells; negative control, transiently overexpressed on CHO cells

[3] = target: T3, 마우스 ROR1 (세포 표면 발현, CHO-mouse ROR1) (mouse, UniProt Q9Z139 30-937); experiment: flow cytometry, CHO-mouse ROR1 cells
T3 construct: whole, on cells; transiently overexpressed on CHO cells

[4] = target: T4, 재조합 인간 ROR1-His (Sino Biological, 13968-H08H) (human, UniProt Q01973 30-403); experiment: BLI (Octet), ROR1-His on the sensor, 1:1 fit
T4 construct: bought protein

[5] = target: T5, 인간 ROR1 (세포 표면 발현) (human, UniProt Q01973 30-937); experiment: flow cytometry, JeKo-1 and Mino cells
T5 construct: whole, on cells; endogenous on JeKo-1, Mino and other human cancer lines; overexpressed on CHO and MC38 cells; also called hROR1; CHO-human ROR1

[6] = target: T6, 재조합 마우스 ROR1 단백질 (Acrobiosystems, RO1-M5221) (mouse, UniProt Q9Z139 30-406); experiment: ELISA, IgG on coated recombinant mouse ROR1
T6 construct: extracellular domain; bought protein; also called 마우스 ROR1 항원
T6 sequence (Q9Z139 30-406): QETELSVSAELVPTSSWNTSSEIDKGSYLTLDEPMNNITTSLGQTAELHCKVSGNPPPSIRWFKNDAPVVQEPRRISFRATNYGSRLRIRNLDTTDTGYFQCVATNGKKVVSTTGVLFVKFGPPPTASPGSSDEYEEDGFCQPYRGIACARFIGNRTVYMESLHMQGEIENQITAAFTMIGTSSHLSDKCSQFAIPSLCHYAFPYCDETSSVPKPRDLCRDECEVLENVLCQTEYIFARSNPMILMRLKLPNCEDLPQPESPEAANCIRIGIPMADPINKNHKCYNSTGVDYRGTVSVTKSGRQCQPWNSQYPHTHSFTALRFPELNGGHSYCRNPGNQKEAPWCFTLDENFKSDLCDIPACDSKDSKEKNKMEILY

T3 sequence (Q9Z139 30-937): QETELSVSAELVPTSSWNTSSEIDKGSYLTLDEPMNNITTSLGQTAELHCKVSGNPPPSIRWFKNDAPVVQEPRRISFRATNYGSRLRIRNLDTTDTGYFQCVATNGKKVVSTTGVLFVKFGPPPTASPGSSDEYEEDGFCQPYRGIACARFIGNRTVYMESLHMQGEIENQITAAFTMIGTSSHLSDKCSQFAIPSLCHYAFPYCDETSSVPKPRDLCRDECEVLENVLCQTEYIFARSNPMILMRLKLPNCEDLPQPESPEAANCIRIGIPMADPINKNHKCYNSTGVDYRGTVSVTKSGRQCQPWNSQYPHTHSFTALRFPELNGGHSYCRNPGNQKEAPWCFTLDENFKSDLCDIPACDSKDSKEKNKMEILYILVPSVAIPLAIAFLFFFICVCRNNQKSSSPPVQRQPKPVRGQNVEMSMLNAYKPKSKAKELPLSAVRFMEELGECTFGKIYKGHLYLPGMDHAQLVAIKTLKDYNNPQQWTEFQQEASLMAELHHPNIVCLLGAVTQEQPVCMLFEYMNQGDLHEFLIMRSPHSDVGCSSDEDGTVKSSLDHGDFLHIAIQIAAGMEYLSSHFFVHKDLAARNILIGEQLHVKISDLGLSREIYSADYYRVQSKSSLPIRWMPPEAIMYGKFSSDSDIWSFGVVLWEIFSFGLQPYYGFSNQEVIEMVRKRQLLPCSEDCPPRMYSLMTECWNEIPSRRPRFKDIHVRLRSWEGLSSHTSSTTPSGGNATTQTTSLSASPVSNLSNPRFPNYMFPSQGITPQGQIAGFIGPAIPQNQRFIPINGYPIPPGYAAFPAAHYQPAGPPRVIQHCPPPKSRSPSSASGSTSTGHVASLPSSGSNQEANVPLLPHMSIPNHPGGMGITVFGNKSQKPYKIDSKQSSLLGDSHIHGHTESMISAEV
T4 sequence (Q01973 30-403 limits assumed): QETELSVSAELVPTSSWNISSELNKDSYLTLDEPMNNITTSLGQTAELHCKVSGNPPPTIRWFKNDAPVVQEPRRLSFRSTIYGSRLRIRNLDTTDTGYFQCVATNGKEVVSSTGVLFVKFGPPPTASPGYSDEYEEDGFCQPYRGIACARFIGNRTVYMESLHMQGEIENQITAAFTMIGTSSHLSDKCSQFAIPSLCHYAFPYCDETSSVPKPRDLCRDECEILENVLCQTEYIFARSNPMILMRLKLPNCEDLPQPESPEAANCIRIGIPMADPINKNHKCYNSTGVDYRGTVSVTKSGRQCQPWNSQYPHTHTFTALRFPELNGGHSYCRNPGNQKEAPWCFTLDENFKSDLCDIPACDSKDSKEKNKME
T2 sequence (Q01974 34-943): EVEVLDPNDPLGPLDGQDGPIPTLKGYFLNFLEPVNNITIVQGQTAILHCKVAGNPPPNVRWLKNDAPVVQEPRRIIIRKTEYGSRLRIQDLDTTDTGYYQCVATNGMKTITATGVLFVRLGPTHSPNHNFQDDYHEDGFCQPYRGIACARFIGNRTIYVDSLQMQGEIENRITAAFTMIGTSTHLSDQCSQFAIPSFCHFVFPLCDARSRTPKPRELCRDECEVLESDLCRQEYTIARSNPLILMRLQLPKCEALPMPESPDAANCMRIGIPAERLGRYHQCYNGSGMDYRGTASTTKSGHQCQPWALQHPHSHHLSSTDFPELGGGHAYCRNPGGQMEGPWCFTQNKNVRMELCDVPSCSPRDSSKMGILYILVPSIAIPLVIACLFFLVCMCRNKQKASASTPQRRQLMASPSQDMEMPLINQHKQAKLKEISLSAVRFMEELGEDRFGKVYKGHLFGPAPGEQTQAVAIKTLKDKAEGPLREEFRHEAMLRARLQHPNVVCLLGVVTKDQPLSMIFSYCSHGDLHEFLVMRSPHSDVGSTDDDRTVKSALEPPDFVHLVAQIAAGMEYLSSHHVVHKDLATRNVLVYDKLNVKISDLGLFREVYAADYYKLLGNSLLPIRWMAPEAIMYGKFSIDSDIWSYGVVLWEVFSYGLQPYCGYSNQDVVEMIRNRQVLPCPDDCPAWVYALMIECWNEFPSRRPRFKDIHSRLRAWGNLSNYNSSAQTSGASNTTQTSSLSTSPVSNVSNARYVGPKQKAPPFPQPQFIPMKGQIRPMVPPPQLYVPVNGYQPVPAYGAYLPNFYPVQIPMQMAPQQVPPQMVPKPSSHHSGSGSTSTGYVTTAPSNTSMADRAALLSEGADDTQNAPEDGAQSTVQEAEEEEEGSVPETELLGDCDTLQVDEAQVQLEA
T5 sequence (Q01973 30-937): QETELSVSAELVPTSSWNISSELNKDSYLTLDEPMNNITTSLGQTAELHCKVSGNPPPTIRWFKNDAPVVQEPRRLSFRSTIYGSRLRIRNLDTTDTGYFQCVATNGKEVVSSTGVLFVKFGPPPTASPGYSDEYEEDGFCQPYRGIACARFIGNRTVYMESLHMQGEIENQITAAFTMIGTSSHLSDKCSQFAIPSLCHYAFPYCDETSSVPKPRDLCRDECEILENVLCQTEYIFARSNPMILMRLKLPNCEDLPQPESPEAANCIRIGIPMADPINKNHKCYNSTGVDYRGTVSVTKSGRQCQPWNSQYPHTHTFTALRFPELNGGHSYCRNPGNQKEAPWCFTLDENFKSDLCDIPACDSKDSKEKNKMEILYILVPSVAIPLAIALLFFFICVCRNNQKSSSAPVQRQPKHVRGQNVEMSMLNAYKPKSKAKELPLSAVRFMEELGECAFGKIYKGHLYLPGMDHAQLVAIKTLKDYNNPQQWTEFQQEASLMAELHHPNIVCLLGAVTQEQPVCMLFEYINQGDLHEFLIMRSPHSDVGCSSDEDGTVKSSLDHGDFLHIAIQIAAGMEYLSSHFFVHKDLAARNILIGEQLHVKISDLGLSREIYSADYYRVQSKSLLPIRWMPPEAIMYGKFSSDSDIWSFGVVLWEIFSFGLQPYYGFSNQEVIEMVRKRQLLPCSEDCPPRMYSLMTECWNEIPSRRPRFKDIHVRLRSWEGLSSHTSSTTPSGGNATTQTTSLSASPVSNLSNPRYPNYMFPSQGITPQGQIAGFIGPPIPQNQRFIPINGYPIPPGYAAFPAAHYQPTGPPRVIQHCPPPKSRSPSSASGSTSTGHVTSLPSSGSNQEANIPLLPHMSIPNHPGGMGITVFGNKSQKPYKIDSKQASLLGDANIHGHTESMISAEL
T1 sequence (Q01973 30-406): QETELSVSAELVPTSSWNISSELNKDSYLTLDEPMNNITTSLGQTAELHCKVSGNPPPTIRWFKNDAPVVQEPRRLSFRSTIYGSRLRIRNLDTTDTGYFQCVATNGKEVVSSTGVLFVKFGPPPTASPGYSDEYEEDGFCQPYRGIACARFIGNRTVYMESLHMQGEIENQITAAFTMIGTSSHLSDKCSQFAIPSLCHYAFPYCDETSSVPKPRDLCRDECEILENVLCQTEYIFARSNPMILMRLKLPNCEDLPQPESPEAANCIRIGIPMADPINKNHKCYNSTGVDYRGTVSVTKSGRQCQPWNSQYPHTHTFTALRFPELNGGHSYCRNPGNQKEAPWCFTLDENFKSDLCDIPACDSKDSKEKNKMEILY

Row | binding result [1] | binding result [2] | binding result [3] | binding result [4] | binding result [5] | binding result [6] | Binder
1 | binds | no binding | binds | binds | binds | binds | A2F2 (antibody, human IgG1, lambda, V domains shown, full IgG, human IgG1 heavy and lambda light constant regions; expressed in CHO-S; also called 항-ROR1 IgG 항체 A2F2) VH: EVQLLESGGGLVQPGGSLRLSCAASGFTFSDYYMSWVRQAPGKGLEWVSSISPDGSNTYYADSVKGRFTISRDNSKNTLYLQMNSLRAEDTAVYYCAKNLRAFDYWGQGTLVTVSS VL: QSVLTQPPPASGTPGQRVTISCSGSSSNIGSNTVYWYQQLPGTAPKLLIYANSQRPSGVPDRFSGSKSGTSASLAISGLRSEDEADYYCGSWDYSLSGYVFGGGTKLTVLG
2 | – | no binding | binds | – | – | binds | C2E3 (antibody, human IgG1, lambda, V domains shown, full IgG, human IgG1 heavy and lambda light constant regions; expressed in CHO-S; also called 항-ROR1 IgG 항체 C2E3; ROR1 단일클론항체(C2E3)) VH: EVQLLESGGGLVQPGGSLRLSCAASGFTFSNYAMSWVRQAPGKGLEWVSSISHNSGSTYYADSVKGRFTISRDNSKNTLYLQMNSLRAEDTAVYYCAKFISARKSLGRSYSNGMDVWGQGTLVTVSS VL: QSVLTQPPSASGTPGQRVTISCTGSSSNIGSNDVTWYQQLPGTAPKLLIYADSKRPSGVPDRFSGSKSGTSASLAISGLRSEDEADYYCGTWDYSLSGYVFGGGTKLTVLG
3 | binds | no binding | binds | binds | binds | binds | CC9 (antibody, human IgG1, lambda, V domains shown, full IgG, human IgG1 heavy and lambda light constant regions; expressed in CHO-S; also called 항-ROR1 IgG 항체 CC9) VH: EVQLLESGGGLVQPGGSLRLSCAASGFTFSSYDMSWVRQAPGKGLEWVSGISHGSGNKYYADSVKGRFTISRDNSKNTLYLQMNSLRAEDTAVYYCAKRLSLRRRPSYYSDNAMDVWGQGTLVTVSS VL: QSVLTQPPSASGTPGQRVTISCTGSSSNIGNNAVNWYQQLPGTAPKLLIYYDSNRPSGVPDRFSGSKSGTSASLAISGLRSEDEADYYCGAWDDSLSGYVFGGGTKLTVLG
4 | – | no binding | binds | – | – | binds | AB4 (antibody, human IgG1, lambda, V domains shown, full IgG, human IgG1 heavy and lambda light constant regions; expressed in CHO-S; also called 항-ROR1 IgG 항체 AB4) VH: EVQLLESGGGLVQPGGSLRLSCAASGFTFSSYDMSWVRQAPGKGLEWVSWISPDSGSIYYADSVKGRFTISRDNSKNTLYLQMNSLRAEDTAVYYCARPTGRFDYWGQGTLVTVSS VL: QSVLTQPPSASGTPGQRVTISCSGSSSNIGNNNVNWYQQLPGTAPKLLIYYDNKRPSGVPDRFSGSKSGTSASLAISGLRSEDEADYYCGTWDASLSGYVFGGGTKLTVLG
5 | binds | no binding | binds | binds | binds | binds | DG6 (antibody, human IgG1, lambda, V domains shown, full IgG, human IgG1 heavy and lambda light constant regions; expressed in CHO-S; also called 항-ROR1 IgG 항체 DG6) VH: EVQLLESGGGLVQPGGSLRLSCAASGFTFSDYDMSWVRQAPGKGLEWVSVISPDGGSIYYADSVKGRFTISRDNSKNTLYLQMNSLRAEDTAVYYCARDVVECNMNPCSYDNAMDVWGQGTLVTVSS VL: QSVLTQPPSASGTPGQRVTISCSGSSSNIGSNYVSWYQQLPGTAPKLLIYDDSHRPSGVPDRFSGSKSGTSASLAISGLRSEDEADYYCGAWDDSLSGYVFGGGTKLTVLG
6 | binds | no binding | binds | binds | binds | binds | D2B12 (antibody, human IgG1, lambda, V domains shown, full IgG, human IgG1 heavy and lambda light constant regions; expressed in CHO-S; also called 항-ROR1 IgG 항체 D2B12) VH: EVQLLESGGGLVQPGGSLRLSCAASGFTFSNYDMSWVRQAPGKGLEWVSSISPSSGSSIYYADSVKGRFTISRDNSKNTLYLQMNSLRAEDTAVYYCAKAPGWCQAPSCYYDNAMDVWGQGTLVTVSS VL: QSVLTQPPSASGTPGQRVTISCSGSSSNIGNNDVSWYQQLPGTAPKLLIYDDSQRPSGVPDRFSGSKSGTSASLAISGLRSEDEADYYCGAWDDSLSGYVFGGGTKLTVLG
7 | binds | no binding | binds | binds | binds | binds | BA6 (antibody, human IgG1, lambda, V domains shown, full IgG, human IgG1 heavy and lambda light constant regions; expressed in CHO-S; also called 항-ROR1 IgG 항체 BA6) VH: EVQLLESGGGLVQPGGSLRLSCAASGFTFSNYDMSWVRQAPGKGLEWVSAIYHSGSSKYYADSVKGRFTISRDNSKNTLYLQMNSLRAEDTAVYYCARGGNGAWDTGFDYWGQGTLVTVSS VL: QSVLTQPPSASGTPGQRVTISCSGSSSNIGSNDVSWYQQLPGTAPKLLIYYDNNRPSGVPDRFSGSKSGTSASLAISGLRSEDEADYYCGAWDDSLSGYVFGGGTKLTVLG
8 | binds | no binding | binds | binds | binds | binds | BA6 M1 (antibody, human IgG1, lambda, V domains shown, full IgG, human IgG1 heavy and lambda light constant regions; expressed in CHO-S; also called 항-ROR1 IgG 항체 BA6 M1) VH: EVQLLESGGGLVQPGGSLRLSCAASGFTFSNYDMSWVRQAPGKGLEWVSAIYHSGSSKYYADSVKGRFTISRDNSKNTLYLQMNSLRAEDTAVYYCARGGNAAWDTGFDYWGQGTLVTVSS VL: QSVLTQPPSASGTPGQRVTISCSGSSSNIGSNDVSWYQQLPGTAPKLLIYYDNNRPSGVPDRFSGSKSGTSASLAISGLRSEDEADYYCGAWDDSLSGYVFGGGTKLTVLG
9 | binds | no binding | binds | binds | binds | binds | A2F2 M1 (antibody, human IgG1, lambda, V domains shown, full IgG, human IgG1 heavy and lambda light constant regions; expressed in CHO-S; also called 항-ROR1 IgG 항체 A2F2 M1) VH: EVQLLESGGGLVQPGGSLRLSCAASGFTFSDYYMSWVRQAPGKGLEWVSSISPDASNTYYADSVKGRFTISRDNSKNTLYLQMNSLRAEDTAVYYCAKNLRAFDYWGQGTLVTVSS VL: QSVLTQPPPASGTPGQRVTISCSGSSSNIGSNTVYWYQQLPGTAPKLLIYANSQRPSGVPDRFSGSKSGTSASLAISGLRSEDEADYYCGSWDYSLSGYVFGGGTKLTVLG
10 | binds | no binding | binds | binds | binds | binds | A2F3 (antibody, human IgG1, lambda, V domains shown, full IgG, human IgG1 heavy and lambda light constant regions; expressed in CHO-S; also called 항-ROR1 IgG 항체 A2F3) VH: EVQLLESGGGLVQPGGSLRLSCAASGFTFSSYDMSWVRQAPGKGLEWVSWISPGGGSKYYADSVKGRFTISRDNSKNTLYLQMNSLRAEDTAVYYCARVNGRFDYWGQGTLVTVSS VL: QSVLTQPPSASGTPGQRVTISCSGSSSNIGNNNVSWYQQLPGTAPKLLIYADSHRPSGVPDRFSGSKSGTSASLAISGLRSEDEADYYCATWDYSLSGYVFGGGTKLTVLG
